Where a chain is given by its changes, count along the chain named.
Tests used:
Details in all cases: chain copies: 4
Cre E262W = Cre E262W (UniProt P06956 P06956:1-343, E262W); test: cell_activity; similar to E262G
Text: (§1) The three defined Cre mutants for the amino acid position 262 were subjected to a functional test for loxK2, loxK1 and loxP recombination activity, as mentioned before. […] To conclude, this final experiment provides the necessary evidence that the E262G mutation presents the basis for the observed decrease in specificity of Cre. However, additional mutations seem to be helpful to increase the newly obtained activity further. In addition, glycine at position 262 is not the only possible residue to permit a remarkable increase in loxK2 activity.
(§2) The results of functional testing of three defined Cre mutants for position 262 compared to wt Cre are listed. All enzymes were checked on loxK2, loxP and loxK1 recombination in the selection strains BS1494, BS1493 and the control strain BS1541. In the first column the Cre candidate is indicated, in the second the allowed time for cre expression. The three following columns show the calculated percentages of Kan^R when subjecting the different Cre mutants and wt Cre to the three selection strains. The frequency of the observed Kan^R phenotype is considered as an indicator for the frequency of […] recombination: On loxK2, E262G and E262W show approximately an 10^3 fold increased Kan^R frequency compared to wt Cre, whereas E262A results in a 200 fold increase. […]

Cre E262A = Cre E262A (UniProt P06956 P06956:1-343, E262A); test: cell_activity; E. coli
Text: as §1, §2

Cre R3M3 (mxoxox 3) = molecular target: T1, Cre R3M3 (mxoxox 3) (UniProt P06956 SEQ:1-343); test: cell_activity; E. coli
T1 chain: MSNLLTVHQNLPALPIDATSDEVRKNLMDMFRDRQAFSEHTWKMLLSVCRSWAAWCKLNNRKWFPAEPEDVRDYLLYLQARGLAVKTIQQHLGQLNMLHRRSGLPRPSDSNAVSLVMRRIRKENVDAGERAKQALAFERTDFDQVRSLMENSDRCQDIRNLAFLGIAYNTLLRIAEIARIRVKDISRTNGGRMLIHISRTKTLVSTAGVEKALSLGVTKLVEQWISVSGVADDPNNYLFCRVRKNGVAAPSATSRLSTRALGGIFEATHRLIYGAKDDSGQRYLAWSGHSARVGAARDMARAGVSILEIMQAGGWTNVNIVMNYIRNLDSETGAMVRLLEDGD

Cre R3M2 (mxoxox 2) = molecular target: T2, Cre R3M2 (mxoxox 2) (UniProt P06956 SEQ:1-343); test: cell_activity; E. coli
T2 chain: T1 chain with I16V, E138G, N189D, S198G, Q223R, S254G, R255Q, L307P

Cre R3M1 (mxoxox 1) = molecular target: T3, Cre R3M1 (mxoxox 1) (UniProt P06956 SEQ:1-343); test: cell_activity; E. coli
T3 chain: T1 chain with I16V, D29A, S198G, Q223R, V227I, R255Q, L307P

B1: loxK2 (selection plasmid pBS584) (dsDNA)
DNA 1: GATACAACGTATATACCTTTCTATACGTTGTATT
DNA 2: AATACAACGTATAGAAAGGTATATACGTTGTATC
Binder B1 has an activity (Cre E262W) of roughly 1000 fold vs wt, an activity (Cre E262A) of 200 fold vs wt and an activity (Cre R3M3 (mxoxox 3)) of roughly 50 % recombination. It also gave an activity (Cre R3M2 (mxoxox 2)) of roughly 50 % recombination and an activity (Cre R3M1 (mxoxox 1)) of roughly 50 % recombination.
